Measured values taken from publication PMC3852957.

What was measured:
[1] = molecular target: human serum albumin (human) (UniProt P02768); test: SPR; Biacore; 500 resonance units of albumin coupled to a CM5 chip; GAlbudAb flowed in HBS-P+ buffer at 39 nM to 5 μM; KD by the 1:1 interaction model in BiaEval software
rat serum albumin (rat) = rat serum albumin (rat) (UniProt P02770); test: as above
[2] = molecular target: cynomolgus monkey serum albumin (cynomolgus monkey) (UniProt A2V9Z4); test: as above
[3] = molecular target: human GLP-1 receptor (human) (UniProt P43220)
Chain of UniProt P43220 (P43220 24-463): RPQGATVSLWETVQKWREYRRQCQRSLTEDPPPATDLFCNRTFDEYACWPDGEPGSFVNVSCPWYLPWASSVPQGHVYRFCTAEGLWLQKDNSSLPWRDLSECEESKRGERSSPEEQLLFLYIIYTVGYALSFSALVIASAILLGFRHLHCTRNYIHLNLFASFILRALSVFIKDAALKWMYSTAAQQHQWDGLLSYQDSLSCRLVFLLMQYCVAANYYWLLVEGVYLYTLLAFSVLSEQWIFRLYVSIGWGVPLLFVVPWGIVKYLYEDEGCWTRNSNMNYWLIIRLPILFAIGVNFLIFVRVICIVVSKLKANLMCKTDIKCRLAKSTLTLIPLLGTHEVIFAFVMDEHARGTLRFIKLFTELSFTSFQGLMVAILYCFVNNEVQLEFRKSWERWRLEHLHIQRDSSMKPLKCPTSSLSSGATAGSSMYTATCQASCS

Chain of UniProt P02770 (P02770 25-608): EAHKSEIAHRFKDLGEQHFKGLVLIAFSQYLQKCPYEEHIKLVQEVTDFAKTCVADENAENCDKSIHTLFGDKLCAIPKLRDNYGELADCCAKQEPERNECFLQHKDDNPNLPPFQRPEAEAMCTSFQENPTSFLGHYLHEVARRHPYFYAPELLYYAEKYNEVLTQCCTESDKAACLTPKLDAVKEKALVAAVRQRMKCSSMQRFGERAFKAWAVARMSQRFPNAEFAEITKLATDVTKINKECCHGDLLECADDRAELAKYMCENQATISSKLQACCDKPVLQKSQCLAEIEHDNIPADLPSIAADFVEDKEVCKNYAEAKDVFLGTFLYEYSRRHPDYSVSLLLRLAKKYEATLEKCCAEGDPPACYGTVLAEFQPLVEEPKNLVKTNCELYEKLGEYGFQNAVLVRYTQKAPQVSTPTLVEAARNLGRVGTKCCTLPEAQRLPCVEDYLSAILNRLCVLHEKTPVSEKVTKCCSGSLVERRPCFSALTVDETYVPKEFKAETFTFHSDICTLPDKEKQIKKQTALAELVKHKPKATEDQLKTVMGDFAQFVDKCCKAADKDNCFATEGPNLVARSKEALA
Chain of UniProt A2V9Z4 (A2V9Z4 25-608): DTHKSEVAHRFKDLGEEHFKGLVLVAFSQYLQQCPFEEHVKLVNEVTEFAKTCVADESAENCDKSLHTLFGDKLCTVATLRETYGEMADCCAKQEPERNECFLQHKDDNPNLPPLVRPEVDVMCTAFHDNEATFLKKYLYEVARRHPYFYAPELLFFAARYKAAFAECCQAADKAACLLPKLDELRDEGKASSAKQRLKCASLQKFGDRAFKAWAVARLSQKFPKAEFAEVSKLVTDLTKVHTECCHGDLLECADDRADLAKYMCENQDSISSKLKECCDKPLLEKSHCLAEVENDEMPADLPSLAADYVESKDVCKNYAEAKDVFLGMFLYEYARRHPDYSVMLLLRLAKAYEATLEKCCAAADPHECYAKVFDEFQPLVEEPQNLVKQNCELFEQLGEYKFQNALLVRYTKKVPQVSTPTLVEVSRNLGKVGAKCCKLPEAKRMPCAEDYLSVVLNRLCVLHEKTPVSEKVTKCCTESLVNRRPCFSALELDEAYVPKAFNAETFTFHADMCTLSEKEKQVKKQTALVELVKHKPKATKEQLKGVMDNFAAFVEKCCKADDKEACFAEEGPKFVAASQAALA
Chain of UniProt P02768 (P02768 25-609): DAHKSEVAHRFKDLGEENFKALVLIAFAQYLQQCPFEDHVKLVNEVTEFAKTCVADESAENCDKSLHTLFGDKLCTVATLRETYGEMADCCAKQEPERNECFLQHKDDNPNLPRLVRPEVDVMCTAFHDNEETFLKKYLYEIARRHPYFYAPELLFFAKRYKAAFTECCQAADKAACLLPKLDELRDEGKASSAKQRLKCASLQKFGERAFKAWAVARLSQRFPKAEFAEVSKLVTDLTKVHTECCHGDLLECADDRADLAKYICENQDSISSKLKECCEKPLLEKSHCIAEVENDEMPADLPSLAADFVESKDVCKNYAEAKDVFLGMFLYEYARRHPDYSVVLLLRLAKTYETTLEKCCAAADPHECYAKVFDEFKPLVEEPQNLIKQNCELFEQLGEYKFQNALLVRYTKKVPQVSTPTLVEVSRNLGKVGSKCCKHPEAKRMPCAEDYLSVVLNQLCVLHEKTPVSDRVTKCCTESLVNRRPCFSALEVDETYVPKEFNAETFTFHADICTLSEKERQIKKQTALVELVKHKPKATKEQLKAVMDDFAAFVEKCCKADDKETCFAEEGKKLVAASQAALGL

Kd [1] | Kd (rat serum albumin (rat)) | Kd [2] | cAMP-driven luciferase reporter gene expression in CHO cells stably transfected with human GLP-1 receptor (EC50) [3] | Substance
143 nM | 275 nM | 395 nM | 0.1 nM | GAlbudAb, DPP-IV resistant GLP-1 (7–36, A8G) fused to the DOM7h-14 AlbudAb
 |  |  | 0.1 nM | GLP-1 (7–36) peptide
